Measurements: US20230304022

How the values were obtained:
Test in all cases: cell_activity
[1] = tested on: Gin-AvrXa7 Δ128 (synthetic); details: E. coli
[2] = tested on: Gin-Avr15Δ120 (synthetic repeats) (synthetic); details: for activity (fold luciferase reduction): HEK293T
[3] = tested on: GinC4 zinc finger recombinase (synthetic); details: HEK293T; 107-fold in p263
[4] = tested on: Gin-Pth15Δ120 (synthetic repeats) (synthetic); details: E. coli
[5] = tested on: TALEN C2 NT-αN (synthetic); details: HeLa; pair C1/C2
[6] = tested on: TALEN A1 NT-αN (synthetic); details: HeLa; pair A1/A2
[7] = tested on: TALEN A2 NT-αN (synthetic); details: HeLa; pair A1/A2
[8] = tested on: GinC4 + Gin-Avr15Δ120 heterodimer (synthetic); details: HEK293T; ZFR-TALER heterodimer

TTAGCACCTGGTTGGAGGGGGTTTATAGCTTCACGAAATATTATAAATTATCAGGTTCCTATAAACCCCCTCCAACCAGGTGCTAA (double strand) [Avr32T]
activity (fold less than cognate) [1]: > 100
activity (fold less than cognate core) ([2]; E. coli): > 1000

GCGGGAGGCGTGTCCAAAACCATGGTTTACAG (double strand) [C4-20G (C4 zinc finger site flanking Gin core)]
activity (fold luciferase reduction) [3]: > 80

TTAGCACCTGGTTGGAGGGGGTTTATAGCTTCATCCAAAACCGGGGTTTACAGGGTTCCTATAAACCCCCTCCAACCAGGTGCTAA (double strand) [Avr32GG]
activity (fold less than cognate) [1]: > 100

TTAGCACCTGGTTGGAGGGGGTTTATAGCTTCAGCTTCATCCAAAACCATGGTTTACAGGGTTCCGGTTCCTATAAACCCCCTCCAACCAGGTGCTAA (double strand) [Avr44G]
activity (fold luciferase reduction) [2]: 20

GTGGTGTACAGTAGGGGGAGATGCAGCTGCTTCCAAAACCATGGTTTACAGGGTGGTTGCATCTCCCCCTACTGTACACCAC (double strand) [PthXo1-32G]
activity (fold over non-cognate site) [4]: > 600
activity (fold less than cognate) ([1]; non-cognate TALE site): > 100
activity (fold less than cognate site) ([2]; E. coli): > 600

CAGAATTGATACTGACT (double strand) [TALEN C2 half-site]
activity (fold over NT-T) [5]: 2

CCTGCAGCTCTCATTTT (double strand) [TALEN A1 half-site]
activity (fold over NT-T) [6]: 9

ATTCTTCCAGAATTGA (double strand) [TALEN A2 half-site]
activity (fold over NT-T) [7]: 9

TTAGCACCTGGTTGGAGGGGGTTTATAGCTTCATCCAAAACCATGGTTTACAGGGTTCCTATAAACCCCCTCCAACCAGGTGCTAA (double strand) [Avr32G]
activity (fold less than cognate site) [4]: > 600
activity (fold luciferase reduction) [2]: 6

GCGGGAGGCGTGTCCAAAACCATGGTTTACAGGGTTCCTATAAACCCCCTCCAACCAGGTGCTAA (double strand) [Avr-G-ZF hybrid site]
activity (fold luciferase reduction) [8]: > 140
